Molecular target: T1, MBP-PgmD401A (Paramecium tetraurelia, UniProt A0DFJ7 1-1065, D401A)
T1 sequence: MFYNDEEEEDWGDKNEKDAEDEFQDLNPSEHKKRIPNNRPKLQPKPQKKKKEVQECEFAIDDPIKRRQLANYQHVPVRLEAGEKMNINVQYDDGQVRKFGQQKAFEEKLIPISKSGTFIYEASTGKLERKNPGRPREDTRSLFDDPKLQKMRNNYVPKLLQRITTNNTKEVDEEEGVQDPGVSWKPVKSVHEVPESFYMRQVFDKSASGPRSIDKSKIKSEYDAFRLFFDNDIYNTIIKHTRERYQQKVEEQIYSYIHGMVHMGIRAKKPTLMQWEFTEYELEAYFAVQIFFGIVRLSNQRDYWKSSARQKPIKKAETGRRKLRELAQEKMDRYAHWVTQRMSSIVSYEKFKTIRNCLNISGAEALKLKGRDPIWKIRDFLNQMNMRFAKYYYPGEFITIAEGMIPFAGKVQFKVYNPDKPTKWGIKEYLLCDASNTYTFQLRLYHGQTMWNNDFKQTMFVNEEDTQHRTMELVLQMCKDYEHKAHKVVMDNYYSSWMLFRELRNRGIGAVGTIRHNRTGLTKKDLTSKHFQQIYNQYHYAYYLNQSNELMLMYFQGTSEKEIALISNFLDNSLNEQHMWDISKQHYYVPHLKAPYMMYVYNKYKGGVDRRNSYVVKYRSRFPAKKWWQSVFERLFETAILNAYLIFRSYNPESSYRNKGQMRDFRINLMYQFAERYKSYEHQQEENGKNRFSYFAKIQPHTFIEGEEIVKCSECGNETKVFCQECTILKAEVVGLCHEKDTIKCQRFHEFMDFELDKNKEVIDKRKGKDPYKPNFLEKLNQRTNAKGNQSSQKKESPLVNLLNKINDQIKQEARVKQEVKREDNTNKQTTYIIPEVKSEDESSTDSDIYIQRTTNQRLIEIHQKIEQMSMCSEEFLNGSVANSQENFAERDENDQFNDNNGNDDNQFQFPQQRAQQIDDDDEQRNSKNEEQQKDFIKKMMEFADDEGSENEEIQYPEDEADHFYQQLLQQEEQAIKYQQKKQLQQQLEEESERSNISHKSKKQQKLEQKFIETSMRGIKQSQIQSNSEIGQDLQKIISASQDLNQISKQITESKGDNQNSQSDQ
Test: DRaCALA; 400 nM protein; DRaCALA: 25 mM HEPES pH 7.5, 0.1 mg/ml BSA, 0.5 mM DTT, 100 mM NaCl, 25 nM DNA, no competitor, temperature not stated; EMSA: as in earlier paper, 5% acrylamide
Conditions: protein: recombinant; tags: N-terminal MBP; label: 32P at 5' end of top strand

B1: IES 51A1835 80-bp substrate (dsDNA)
DNA 1: ACTACTACATAATGCTAAACTCATTTATAGATGGATTGTTTTCCAAGTATCTATATCATCATGTGTTGCTAATAACCCTG
DNA 2: ATCGCAGGGTTATTAGCAACACATGATGATATAGATACTTGGAAAACAATCCATCTATAAATGAGTTTAGCATTATGTAGT
binding result: binds

Source: article PMC8086355, “The unusual structure of the PiggyMac cysteine-rich domain reveals zinc finger diversity in PiggyBac-related transposases”
